Data as given in patent US20020002269A1, “ARTEMIN, A NEUROTROPHIC FACTOR” (priority 1998, published 2002).

B1: GDNF: recombinant human mature GDNF obtained from Genentech (protein, UniProt P39905 78-211, looked up)
Glial cell line-derived …: SPDKQMAVLPRRERNRQAAAANPENSRGKGRRGQRGKNRGCVLTAIHLNVTDLGLGYETKEELIFRYCSGSCDAAETTYDKILKNLSRNRRLVSDKVGQACCRPIAFDDDLSFLDDNLVYHILRKHSAKRCGCI

Tests used:
RET = target: T1, RET (Homo sapiens, UniProt P07949); test: Western blot of RET phosphorylation and MAP kinase activation in NBL-S cells, with or without PI-PLC; type: cell-based; conditions: FIG. 9B
T1 construct: both the SH-SY5Y and NBL-S cell lines express GFRα1, GFRα2, and GFRα3, as well as RET; endogenous in cells; host or cells: NBL-S neuroblastoma cells
T1 sequence (P07949 29-1114): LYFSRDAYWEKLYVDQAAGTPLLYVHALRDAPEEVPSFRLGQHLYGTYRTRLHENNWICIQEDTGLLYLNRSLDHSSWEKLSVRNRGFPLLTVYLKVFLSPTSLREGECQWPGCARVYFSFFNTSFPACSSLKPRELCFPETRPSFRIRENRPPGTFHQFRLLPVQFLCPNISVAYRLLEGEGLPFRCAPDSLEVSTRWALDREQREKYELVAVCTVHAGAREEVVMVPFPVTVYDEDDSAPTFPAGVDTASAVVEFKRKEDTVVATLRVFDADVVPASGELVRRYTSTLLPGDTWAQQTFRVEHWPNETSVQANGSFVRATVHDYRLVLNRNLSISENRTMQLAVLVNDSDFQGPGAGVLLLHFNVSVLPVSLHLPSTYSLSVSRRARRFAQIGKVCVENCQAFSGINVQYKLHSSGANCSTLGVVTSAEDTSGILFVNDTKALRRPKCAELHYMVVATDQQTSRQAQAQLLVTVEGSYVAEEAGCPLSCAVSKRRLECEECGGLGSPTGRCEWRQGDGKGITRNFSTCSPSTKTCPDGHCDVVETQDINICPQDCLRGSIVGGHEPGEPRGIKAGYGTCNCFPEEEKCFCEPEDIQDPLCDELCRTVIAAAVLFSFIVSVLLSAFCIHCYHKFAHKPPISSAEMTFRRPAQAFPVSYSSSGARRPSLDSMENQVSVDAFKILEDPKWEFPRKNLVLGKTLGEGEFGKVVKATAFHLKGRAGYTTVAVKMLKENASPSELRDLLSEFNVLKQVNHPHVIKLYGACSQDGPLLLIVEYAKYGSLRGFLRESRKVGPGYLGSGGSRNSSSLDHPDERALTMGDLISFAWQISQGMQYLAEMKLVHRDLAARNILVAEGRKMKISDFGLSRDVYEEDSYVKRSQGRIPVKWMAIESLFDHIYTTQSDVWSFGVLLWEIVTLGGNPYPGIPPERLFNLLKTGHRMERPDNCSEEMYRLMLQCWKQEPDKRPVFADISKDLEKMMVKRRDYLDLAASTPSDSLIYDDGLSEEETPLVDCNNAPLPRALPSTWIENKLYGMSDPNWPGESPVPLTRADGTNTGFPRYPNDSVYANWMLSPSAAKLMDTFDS
Protocol: In brief, SCG neurons were dissected from postnatal day 1 (P1) rats and maintained in NGF-containing medium for 5 days, after which they were deprived of NGF by switching to NGF-free medium in the presence of anti-NGF antibodies. After 2 hours without NGF, neurons were switched to medium containing NGF, GDNF or artemin at 50 ng/ml for 20 minutes. Cells were washed in cold PBS, and collected in immunoprecipitation buffer (1 mM EDTA/1 mM EGTA/0.2 mM NaVO3/1 mM Pefabloc/1 uM pepstatin A/10 ug/ml leupeptin/2 ug/ml aprotinin/1% Triton X-100/0.5% Nonidet P-40/150 mM NaCl in 10 mM Tris, pH 7.4). The lysates were incubated with 30 μl agarose-conjugated anti-phosphotyrosine antibodies (Calbiochem) at 4° C. for 1 hr. Beads were then washed three times with immunoprecipitation buffer, resuspended in SDS sample buffer, and boiled for 5 min. Samples were separated using SDS-PAGE, and transferred to nitrocellulose membranes. Membranes were blocked for 1 hr at 25° C. in TBS containing 5% dry milk, incubated overnight 4° C. with a 1:300 dilution of anti-Ret antibody (C-19; Santa Cruz), then washed (3× in TBS containing 0.1% Tween-20) and incubated in a 1:10,000 dilution of anti-rabbit antibodies conjugated to HRP (Jackson Immunoresearch). Membranes were washed 3×, incubated with SuperSignal ULTRA (Pierce) for 5 minutes, then exposed to film. For MAP kinase (MAPK) assays, a portion of the total lysate wars removed before immunoprecipitation, separated by SDS-PAGE, and immunoblotted using an anti-phospho-MAP-kinase antibody (New England Biolabs).
NBL-S cells were plated at 3×10^5 cells/well in 6-well plates, and after 46 hr switched to low-serum (0.5%) medium for 2 hr, and then stimulated with NGF, GDNF or artemin (50 ng/ml) for 20 min. Cells were then collected and analyzed as above. For PI-PLC treatment, a parallel set of NBL-S cells were plated as above but treated with 500 mU/ml of PI-PLC (Boehringer-Mannheim) for 1 hr, and washed with PBS and stimulated with factors as above.

[1] = tested on: SAN neuroblastoma cell line; test: Responsiveness of a neuroblastoma cell line that does not express RET (SAN); type: cell-based; conditions: data not shown
[2] = tested on: trigeminal ganglion (TG) neurons; test: Survival of cultured trigeminal ganglion neurons; type: cell-based, rat; conditions: 50 ng/ml, FIG. 7C; for survival of TG sensory neurons: 3 days in vitro
Protocol: Each GDNF ligand family member consisted of the human mature amino acid sequence and was produced by standard recombinant DNA methods. Recombinant GDNF, neurturin and persephin were obtained from Genentech while recombinant artemin was produced as described in Example 3.
The cultures were performed using standard methods described elsewhere (Kotzbauer et al., Neuron 12:763-773, 1994; Kotzbauer et al., Nature 384:467-470, 1996; Milbrandt et al., Neuron 20:245-253, 1998). In brief, for SCG neurons, after dissection and dissociation, neurons were plated on collagen-coated 24-well tissue culture plates and maintained in NGF-containing medium (AM50) for 5 days, after which they were either kept in AM50 or switched to medium containing neutralizing anti-NGF antibodies plus GDNF, neurturin, persephin, artemin, (50 ng/ml where not noted otherwise), or no growth factors. Cultures were maintained for 3 days, after which they were fixed in 4% paraformaldehyde and stained with toluidine blue, and surviving neurons were counted. For nodose ganglion and dorsal root ganglion neuron cultures, dissociated neurons were plated directly into NGF (for dorsal root ganglia), or BDNF (for nodose ganglia, 100 ng/ml) or one of the GDNF ligands in serum-containing medium (AM50 with anti-NGF antibodies), and cells surviving after 3 days in culture were counted as above. Trigeminal ganglia were dissected, dissociated, and plated directly into medium containing NGF or the indicated GDNF ligands, and the number of surviving cells was assessed after 3 days in vitro. For all culture systems, 2-3 independent experiments were performed.

Row | Molecule | downstream signaling (activation of the MAP kinase pathway) in NBL-S cells (RET; 50 ng/ml for 20 min) | tyrosine-phosphorylation of RET in NBL-S cells (RET; 50 ng/ml for 20 min) | effect of PI-PLC pretreatment on signaling in NBL-S cells (RET; 500 mU/ml PI-PLC for 1 hr, then factor 50 ng/ml for 20 min) | response of SAN cells [1] | survival of TG sensory neurons [2] | number of TG neurons supported compared with GDNF or neurturin [2] | number of TG neurons supported compared with NGF [2]
1 | artemin: recombinant mature human artemin (FIG. 3A, SEQ ID NO:3) with 8-histidine tag, produced in E. coli; GDNF family neurotrophic factor | effective in eliciting downstream signaling | induced tyrosine-phosphorylation of RET | abolished artemin's ability to activate RET and all downstream signaling | did not respond | supported the survival of a subset of sensory neurons | supported a larger number of neurons than GDNF or neurturin | a greater number (TG)
2 | B1 |  | induced tyrosine-phosphorylation of RET |  | did not respond | supported the survival of a subset of sensory neurons |  | 
